Molecular target: human μ receptor (human) (UniProt P35372)
UniProt P35372, sequence (P35372 whole entry): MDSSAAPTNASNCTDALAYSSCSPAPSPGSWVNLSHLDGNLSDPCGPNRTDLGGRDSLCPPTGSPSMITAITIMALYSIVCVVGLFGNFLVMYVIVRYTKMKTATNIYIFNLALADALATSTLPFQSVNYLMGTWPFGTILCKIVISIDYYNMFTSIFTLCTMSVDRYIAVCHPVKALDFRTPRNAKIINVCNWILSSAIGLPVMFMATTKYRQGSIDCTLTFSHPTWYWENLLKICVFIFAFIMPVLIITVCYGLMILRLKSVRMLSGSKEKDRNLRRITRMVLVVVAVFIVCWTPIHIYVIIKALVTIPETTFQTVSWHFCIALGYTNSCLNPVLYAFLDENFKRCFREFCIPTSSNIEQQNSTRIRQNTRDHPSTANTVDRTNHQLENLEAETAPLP

EC50 of the FRET signal increase (cAMP decrease) of the Epac sensor H187 in single HEK293 cells co-expressing μR, increasing concentrations of DAMGO, no forskolin pre-treatment: 0.091 nM
Substance: DAMGO (peptide)

Source: paper PMC5438440
